Numbering of substitutions follows the chain as printed. Names and notes keep the numbering of the source. Like-named read-outs stand apart in the source and are kept apart here.
Assays:
SEC [1] = biological target: the molecule itself; assay: SEC
SEC [2] = biological target: the molecule itself; assay: SEC; remark: listed apart in the source
SEC [3] = biological target: the molecule itself; assay: SEC; remark: listed apart in the source
crystal structure = biological target: the molecule itself; assay: crystal structure

B1: KcsA W67F channel (natural protein, UniProt P0A334 1-125, looked up)
chain: MPPMLSGLLARLVKLLLGRHGSALHWRAAGAATVLLVIVLLAGSYLAVLAERGAPGAQLITYPRALFWSVETATTVGYGDLYPVTLWGRLVAVVVMVAGITSFGLVTAALATWFVGREQERRGHF
- stoichiometry N (SEC [1]): 4

B2: KcsA W67F/F103A channel (natural protein, UniProt P0A334 1-125, looked up)
chain: B1 chain with F103A
- binding result (SEC [2]): binds

B3: KcsA Y82A channel (natural protein, UniProt P0A334 1-125, looked up)
chain: B1 chain with F67W, Y82A
- stoichiometry N (SEC [3]): 4

B4: KcsA W67F channel, locked open (disulfide cross-linked open-state construct) (natural protein, UniProt P0A334 21-125, looked up)
chain: GSALQWRCAGAATVLLVIVLLAGSYLAVLAERGAPGAQLITYPRALFWSVETATTVGYGDLYPVTLWGRLVAVVVMVAGITSFGLVTAALATWFVGQCQQQQGHF
modifications: Cys mutant channels in the cross-linked state (disulfide crosslink between subunits)
- stoichiometry N (SEC [2]): 4

B5: KcsA WT channel trapped with the activation gate open (disulfide cross-linked open-state construct) (natural protein, UniProt P0A334 21-125, looked up)
chain: B4 chain with F47W
modifications: Cys mutant channels in the cross-linked state (disulfide crosslink between subunits)
- binding result (crystal structure): binds

Reference: publication PMC8672811 (Journal of molecular biology, 2021)
